Measured values published in PMC2329594, “A Minimal Fragment of MUC1 Mediates Growth of Cancer Cells” (PLoS ONE, 2008).

Target: the molecule itself
Experiment: gold nanoparticle aggregation (colour change); histidine-tagged peptides (100 uM in PBS) on NTA-Ni gold nanoparticles, alone or mixed; colour change after 15 minutes

B1: MUC1_(SAD (self-aggregation domain)) peptide (peptide, UniProt P15941 1084-1109, looked up)
peptide: GGFLGLSNIKFRPGSVVVQLTLAFRE
notes: MUC1, human; also called N-1084-1109-C; source: synthetic peptide
  binding result: binds

B2: MUC1_(ecd-EXT) peptide (peptide, UniProt P15941 1101-1148, looked up)
peptide: VQLTLAFREGTINVHDVETQFNQYKTEAASRYNLTISDVSVSDVPFPF
notes: MUC1, human; also called shifted frame peptide; N-1101-1148-C; source: synthetic peptide
  binding result: binds
